The record followed here is patent publication US20200199244A1 (published 2020).

A word on the Kd: it is the equilibrium constant for the complex coming apart. Low readings indicate a tighter complex, high ones a looser complex. One may read the koff as a measure of how fast the partners let go of each other. Lower therefore signals slow dissociation. Broadly, the kon is the rate constant with which the complex forms. Lower therefore signals slow association. Usually EC50 stands for the concentration needed to bring the measured effect to its halfway point. Read a high EC50 as a less potent agent.

First the molecules themselves.
B1: BMS3h-37-2 (other)
VH: EVQLLESGGGLVQPGGSLRLSCAASGFTFEWYEMQWVRRAPGKGLEWVSAISGDGYRTYYADSVKGRFTISRDNSKNTLYLQMNSLRAEDTAVYYCAKELGYFDYWGRGTLVTVSS
notes: domain antibody (dAb): single human VH domain
B2: BMS3h-38-1 (other)
VH: EVQLLGSGGGLVQPGGSLRLSCAASGFTFEEEEMIWVRQAPGKGLEWVSAISGSGGSTYYADSVKGRFTISRDNSKNTLYLQMNSLRAEDTAVYYCSKEPFRFDYWGQGTLVTVSS
notes: as for B1
B3: BMS3h-198-1 (other)
VH: EVQLLESGGGLVQPGGSLRLSCAASGSTIAGYEMWWVRQAPGKGLERVSAISGSGGSTYYADSVKGRFTISRDDSKNTLYLQMNSLRAEDTAVYYCARDPYSFDYWGQGTLVTVSS
notes: as for B1
B4: BMS3h-37-5 (other)
VH: EVQLLESGGGLVQPGGSLRLSCAASGFTFEWYEMQWVRQAPGKGLEWISAISGDGYRTYYADSVKGRFTISRDNSKNTLYLQMNSLRAEDTAVYYCAKELGYFDYRVQGTLVTVSS
notes: as for B1
B5: BMS3h-41-1 (other)
VH: EVQLLESGEGLVQPGGSLRLSCAASGFTFTEHEMIWVRQAPGKGLEWVSSISGNGANTYYADSVKGRFTISRDNSKNTLYLQMNSLRPEDTAVYYCAKEPLRFDYWGQGTLVTVSS
notes: as for B1
B6: BMS3h-38-3 (other)
VH: EVQLLASGGGLVQPGGSLRLSCAASGFTFEEEEMIWVRQAPGKGLEWISAISGSGGSTYYADSVKGRFTISRDNSKNTLYLQMNSLRAEDTAVYYCGKEPFRFDYWGQGTLVTVSS
notes: as for B1
B7: BMS3h-38-2 (other)
VH: EVQLLASGGGLVQPGGSLRLSCAASGFTFEEEEMIWVRQAPGKGLEWVSAISGSGGSTYYADSVKGRFTISRDNSKNTLYLQMNSLRAEDTAVYYCGKEPFRYDYWGQGTLVTVSS
notes: as for B1
B8: BMS3h-43-1 (other)
VH: EVQLLESGGGLVQPGGSLRLSCTASGFTFNMYEMSWVRQAPGKGLEWVSGISRRGFTTYYADSVKGRFTISRDNSKNTLYLQMNSLRAEDTAVYYCAKEPITYDLRYARFDYSGQGTLVTVSS
notes: as for B1
B9: BMS3h-193-12 (other)
VL: DIQMTQSPSSLSASVGDRVTITCRASQTIERRLNWYQQKPGKAPKLLIYLASRLQSGVPSRFSGSGSGTDFTLTISSLQPEDFATYYCHQYESPPLTFGQGTKVEIKR
notes: dAb, single VK
B10: BMS3h-193-18 (other)
VL: DIQMTQSPSSLSASVGDRVTITCRASQTIGRRLNWYQQKPGKAPKLLIYLASRLQSGVPSRFSGSGSGSDFTLTISSLQPEDFATYYCHQYESPPLTFGQGTKVEIKR
notes: dAb, single VK
B11: BMS3h-193-26 (other)
VL: DIQMTQSPSSLSASVGDRVTITCRASQPIERRLNWYQQKPGKAPKLLIYLASRLQSGVPSRFSGSGSGTDFTLTISSLQPEDFATYYCHQYESPPLTFGQGTKVEIKR
notes: dAb, single VK
B12: BMS3h-193-30 (other)
VL: DIQMTQSPSSLSASVGDRVTITCRASQSIERRLNWYQQKPGKAPKLLIYLASRLQSGVPSRFSGSGSGTDFTLTISSLQPEDFATYYCHQYESPPLTFGQGTKVEIKR
notes: dAb, single VK
B13: BMS3h-193-19 (other)
VL: DIQMTQSPSSLSASVGDRVTITCRASQTIERRLNWYQQKPGKAPKLLIYLASRLQSGVPSRFSGSGSGTEFTLTISSLQPEDFATYYCHQYESPPLTFGQGTKVEIKR
notes: dAb, single VK
B14: BMS3h-193-25 (other)
VL: DIQMTQSPSSLSASVGDRVTITCRASQTIERRLNWYQQKPGKAPRLLIYLATRLQSGVPSRFSGSGSGTDFTLTISSLQPEDFATYYCHQYESPPLTFGQGTKVEIKR
notes: dAb, single VK
B15: BMS3h-193-7 (other)
VL: DIQITQSPSSLSASVGDRVTITCRASQTIERRLNWYQQKPGKDPKLLIYLASRLQSGVPSRFSGSGSGTDFTLTISSLQPEDFATYYCHQYESPPLTFGQGTKVEIKR
notes: dAb, single VK
B16: BMS3h-193-27 (other)
VL: DIQMTQSPSSLSASVGDRVTITCRASQTIGRRLNWYQQKPGKAPKLLIYLASRLQSGVPSRFSGSGSGTDFTLTISSLQPEDFATYYCHQYESPPLTFGQGTKVEIKR
notes: dAb, single VK
B17: BMS3h-193-10 (other)
VL: DIQMSQSPSTLSASVGDRVTITCRASQTIERRLNWYQQKPGKAPKLLIYLASRLQSGVPSRFSGSGSGTDFTLTISSLQPEDFATYYCHQYESPPLMFGQGTKVEIKR
notes: dAb, single VK
B18: BMS3h-193-11 (other)
VL: DIQMTQSPSSLSASVGDRVTITCRASQTIERRLNWYQQKPGKDPKLLIYLASRLQSGVPSRFSGSGSGTDFTLTISSLQPEDFATYYCHQYESPPLTFGQGTKVEIKR
notes: dAb, single VK
B19: BMS3h-198-9 (other)
VH: EVQLLESGGGLVQPGGSLRLSCAASGFTFAGYEMWWVRQAPGKGLERVSAISGSGGSTYYADSVKGRFTISRDDSKNTLYLQMNSLRAEDTAVYYCAKEPYSFDYWGQGTLVTVSS
notes: dAb, single VH
B20: BMS3h-198-14 (other)
VH: EVQLLESGGGLVQPGGSLRLSCAASGFTFAGYEMWWFRQAPGKGLERVSAISGSGGSTYYADSVKGRFTISRDDTKNTLYLQMNSLRAEDTAVYYCAKDPYSFDYWRQGTLVTVSS
notes: dAb, single VH
B21: BMS3h-198-10 (other)
VH: EVQLLESGGGLVQPGGSLRLSCAASGSTIAGYEMWWVRQAPGKGLERVSAISGSGGSTYYADSVKGRFTISRDDSKNTLYLQMNSLRAEDTAVYYCAKDPYSFDYWGQGTLVTVSS
notes: dAb, single VH
B22: BMS3h-198-22 (other)
VH: EVQLLESGGGLVQPGGSLRLSCAASGFTFAGYEMWWVRQAPGKGLERVSAISGSGGSTYYADSVKGRFTISRDDSKNTLYLQMNSLRAEDTAVYYCAKEPYSYDYWGHGTLVTVSS
notes: dAb, single VH
B23: BMS3h-198-37 (other)
VH: EVQLLESGGGLVQPGGSLRLSCAASGFTFAGYELWWVRQAPGKGLERVSAISGSGGSTYYADSVKGRFTISRDDSKNTLYLQMNSLRAEDTAVYYCAKDPYSFDYRGQGTLVTVSS
notes: dAb, single VH
B24: BMS3h-198-19 (other)
VH: EVQLLESGGGLVQPGGSLRLSCAASGFTFAGYELWWVRQAPGKGLERVSAISGSGGSTYYADSVKGRFTISRDDSKNTLYLQMNSLRAEDTAVYYCARDPYSFDYRGQGTLVTVSS
notes: dAb, single VH
B25: BMS3h-198-11 (other)
VH: EVQLLESGGGLVQPGGSLRLSCAASGFTFAGYEMWWVRQAPGKGLERVSAISGSGGSTYYADSVKGRFTISRDDSKNTLYLQMNSLRAEDTAVYYCARDPYSFDYWGQGTLVSVSS
notes: dAb, single VH
B26: BMS3h-198-38 (other)
VH: EVQLLESGGGLVQPGGSLRLSCAASGFTFAGYELWWVRQAPGKGLERVSAISGSGGSTYYADSVKGRFTISRDDSKNTLYLQMNSLRAEDTAVYYCARDPYSFDYWGQGTLVTVSS
notes: dAb, single VH
B27: BMS3h-198-34 (other)
VH: EVQLLESGGGLVQPGGSLRLSCAASGFTFAGYEMWWVRQAPGKGLERVSAISGSGGSTYYADSVKGRFTISRDDSKNTLYLQMNSLRAEDTAVYYCAKDPYSFDNWGQGTLVTVSS
notes: dAb, single VH
B28: BMS3h-198-17 (other)
VH: EVQLLESGGGLVQPGGSLRLSCAASGFTFAGYEMWWVRQAPGKGLERVSAISGSGGSTYYADSVKGRFTISRDDSKNTLYLQMNSLRAEDTAVYYCARDPYSFDYWGQGTLVTVSS
notes: dAb, single VH
B29: BMS3h-198-31 (other)
VH: EVQLLESGGGLVQPGGSLRLSCAASGFTFAGYEMWWVRQAPGKGLERVSAISGSGGSTYYADSVKGRFTISRDNSKNTLYLQMNSLRAEDTAVYHCAKEPYSYDYWGQGTLVTVSS
notes: dAb, single VH
B30: BMS3h-198-32 (other)
VH: EVQLLESGGGLVQPGGSLRLSCAASGFTFAGYEMWWFRQAPGKGLERVSAISGSGGSTYYADSVKGRFTISRDNSKNTLYLQMNSLRAEDTAVYYCAKDPYSFDNWGQGTLVTVSS
notes: dAb, single VH
B31: BMS3h-198-33 (other)
VH: EVQLLESGGGLVQPGGSLRLSCAASGFTFAGYEMWWVRQAPGKGLERVSAISGSGGSTYYADSVKGRFTISRDDSKNTLYLQMNSLRAEDTAVYYCAKEPYSYDYWGQGTLVTVSS
notes: dAb, single VH

Several values for one entry are separate records, joined by “and”; a condition that tells them apart may be missing. Equal values may be shown once.

The target of one test is T1, biotinylated human CD40 (BMS) (human, UniProt P25942 21-193, limits assumed, biotinylated (sites not given)).
T1 construct: Ligand immobilised on the streptavidin BIAcore chip
T1 sequence (P25942 21-193 limits assumed): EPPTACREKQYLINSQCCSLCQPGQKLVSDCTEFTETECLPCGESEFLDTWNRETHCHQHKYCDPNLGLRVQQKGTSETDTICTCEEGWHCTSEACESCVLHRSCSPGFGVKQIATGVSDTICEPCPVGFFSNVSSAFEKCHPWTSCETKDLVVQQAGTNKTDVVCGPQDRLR
Put plainly: BIAcore SPR, immobilised biotinylated human CD40, 1:1 fit.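 Note: binding kinetics of dAbs flowed over the CD40 surface at 25 °C in HBS-EP, 300 s dissociation, signal corrected by reference cell and buffer blank, global Langmuir fit.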 For orientation: SPR reads the build-up and loss of mass on a sensor chip optically.
B1 returned a Kd of 4 nM, a koff of 0.00041 s⁻¹ and a kon of 100000 M⁻¹ s⁻¹.
On to B2, for which binding was characterised by a dissociation constant (Kd) of 33 nM, the koff was found to be 0.0011 s⁻¹ and the kon is 32000 M⁻¹ s⁻¹.
In the same order, the values of B3 are 13 nM, 0.00018 s⁻¹ and 15000 M⁻¹ s⁻¹.
On the same counts, the results for B4 are 5.5 nM, 0.00022 s⁻¹ and 39000 M⁻¹ s⁻¹.
On the same counts, the results for B5 are 11 nM, 0.00056 s⁻¹ and 51000 M⁻¹ s⁻¹.
With B6, the affinity, expressed as Kd, was 5.5 nM; the koff came to 0.00041 s⁻¹; the kon came out at 75000 M⁻¹ s⁻¹.
In the same order, the values of B7 are 12 nM, 0.00075 s⁻¹ and 61000 M⁻¹ s⁻¹.
On the same counts, the results for B8 are 140 nM, 0.00063 s⁻¹ and 4400 M⁻¹ s⁻¹.

The target in a further test is T2, human CD40 (BMS, CY24FEB06-01) (human, UniProt P25942 21-193).
T2 construct: Soluble reagent of the bead and ELISA RBA; It is detected with an anti-human IgG (Fc) mAb, so it may be a CD40-Ig fusion
T2 sequence (P25942 21-193 limits assumed): as above
Put plainly: ELISA RBA, competition with IZ-CD40L.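 Note: Neutravidin-coated 384-well plate, dAb–human CD40 complex bound for 2 h at room temperature, absorbance read at 450 nm after HCl stop.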 Background: ELISA stands for enzyme-linked immunosorbent assay.
Experimental: Clear walled High Bind, 384-well plates (Corning, UK) were coated with 25 μl of 1 μg/ml Neutravidin in 0.2 M carbonate-bicarbonate buffer, pH 9.4 overnight at 4° C. The following day, assay plates were washed with 0.1% (v/v) Tween PBS buffer, blocked with 1% (w/v) BSA in PBS for 1 hour at room temperature and washed again. […] Following washing of the assay plate, the dAb:human CD40 complex was incubated in the assay plate at room temperature for 2 hours with gentle agitation. […] Absorbance signal was measured using a SpectraMax® M5e plate reader (Molecular Devices) at 450 nm following neutralization with 1M HCl solution.
On to B9, for which the EC50 came out at 200 nM.
The same measure, in the same setting: under B10 stands 100 nM; under B11, 100 nM; under B12, 290 nM and 116 nM.
Still for that read-out and setting: under B13 stands 100 nM.
On the same count and under the same terms, under B14 stands 140 nM.
B15: the EC50 was found to be 300 nM.
B16 registered an EC50 of 100 nM.
On to B17, for which the EC50 worked out at 200 nM.
On to B18, for which the EC50 turned out to be 300 nM.
Still for that read-out and setting: the value for B19 was 20 nM; that for B20 was 9 nM.
On the same count and under the same terms, under B21 stands 35 nM; under B22, 10 nM.
The same measure, in the same setting: under B23 stands 15.1 nM.
B24 returned an EC50 of 7.9 nM.
The same measure, in the same setting: under B25 stands 20 nM; under B26, 7.2 nM; under B27, 32.6 nM.
Turning to B28, the EC50 came out at 20 nM.
Same read-out and setting: the value for B29 was 6.1 nM; that for B30 was 24.7 nM; that for B31 was 8.7 nM.
